The subject of series [1] is extracellular matrix proteins such as collagen and proteoglycans. Briefly: 3T MRI of atherosclerotic lesion with plaque-targeting contrast agent. Type of series: in vivo, rabbit. As to conditions: 0.5 μmol/kg, 1 h before scan, TP 1. How it is done:
The presence of atherosclerotic lesions in the rabbits was confirmed by 3T MRI 1 hour after administration of a non-receptor specific plaque-targeting contrast agent ([…], 0.5 μmol/kg body weight, Schering AG, Germany). […] For scanning, the rabbit was placed supine into a plastic bed. Three micropipette tubes filled with 0.5 mL Gadofluorine M (Bayer Schering Pharma AG, Berlin) served as fiducial markers, and were taped into position on the bed. At the beginning of the PET study, these tubes were drained of the Gadofluorine by syringe, and refilled with 0.5 mL of ^64Cu to serve as the PET fiducials. These helped to “co-localize” the plaque regions between the two image modalities.
In this example, a MR T1 W coronal image of a typical atherosclerotic lesion in the femoral artery of a rabbit 4 weeks after air dessication-induced injury (TP 1) is shown (FIG. 6). Gadofluorine M (0.5 μmol/kg body weight) was given 1 h before the scan. […] MRI confirmed the presence of a thickened neointima in the injured vessel characteristic of the atherosclerotic-like plaques induced in this model.

Another series is described as follows: in vivo. As to conditions: rabbit, iv, 20 MBq, total radioactivity. The procedure: The blood clearance studies were performed in normal rabbits (n=4) to evaluate the pharmacokinetics of tracer in vivo. About 20 MBq of ^64Cu-DOTA-C-ANF was injected intravenously into the left ear of rabbit, and blood sample (0.2 mL) was drawn from the contralateral ear over the period of 1 h (1 min, 3 min, 5 min, 10 min, 20 min, 40 min and 60 min). The activity of the blood samples were counted in gamma counter and presented in percent injected dose per gram (ID %/g). […] (FIG. 7). This tracer therefore is a highly sensitive means by which to detect a trace amount of ^64Cu-DOTA-C-ANF in the atherosclerotic animal model

Positions of bridges follow the written chain, without caps; N, C: chain ends. Residues, ends and D or L forms follow the SMILES beside them. *: point of attachment. DOTA = O=C(O)CN1CCN(CC(=O)O)CCN(CC(=O)*)CCN(CC(=O)O)CC1

On to `CC(C(=O)NCC(=O)NCCCC[C@H](NC(=O)CO[C@H]1O[C@H](CO)[C@@H](O)[C@H](O)[C@@H]1O)C(=O)N1CCN(S(=O)(=O)C(F)(F)C(F)(F)C(F)(F)C(F)(F)C(F)(F)C(F)(F)C(F)(F)C(F)(F)F)CC1)N1CCN(CC(=O)O)CCN(CC(=O)O)CCN(CC(=O)O)CC1` (some centres unmarked) [Gadofluorine M], for which, in series [1], the “contrast agent at injured femoral artery (MR T1W image)” value is “binding” and the “contrast agent uptake in control artery (MR T1W image)” value is “weak uptake”.

As for `CC[C@H](C)[C@@H]1NC(=O)[C@H](CCCNC(=N)N)NC(=O)[C@H](CC(=O)O)NC(=O)[C@H]([C@@H](C)CC)NC(=O)[C@H](CCCNC(=N)N)NC(=O)CNC(=O)CNC(=O)[C@H](Cc2ccccc2)NC(=O)[C@@H](NC(=O)[C@H](CO)NC(=O)[C@H](CO)NC(=O)[C@H](CCCNC(=N)N)NC(=O)CN2CCN(CC(=O)O)CCN(CC(=O)O)CCN(CC(=O)O)CC2)CSSC[C@@H](C(N)=O)NC(=O)[C@H](C)NC(=O)CNC1=O` [^64Cu-DOTA-C-ANF, metal not drawn] ({DOTA}-RSSCFGGRIDRIGAC-NH2; disulfide 4-15), in “in vivo”, the tissue uptake at 1 min worked out at 0.22 %ID/g, the tissue uptake at 0.05 h came to 0.1 %ID/g and the tissue uptake at 1 h was found to be 0.02 %ID/g.
